Results reported in PMC5085138, “Novel CD7-specific nanobody-based immunotoxins potently enhanced apoptosis of CD7-positive malignant cells” (Oncotarget, 2016).

B1: CD7 on CD7-positive T-cell lines Jurkat and CEM (receptor)
chain: AQEVQQSPHCTTVPVGASVNITCSTSGGLRGIYLRQLGPQPQDIIYYEDGVVPTTDRRFRGRIDFSGSQDNLTITMHRLQLSDTGTYTCQAITEVNVYGSGTLVLVTEEQSQGWHRCSDAPPRASALPAPPTGSALPDPQTASALPDPPAASALPAALAVISFLLGLGLGVACVLARTQIKKLCSWRDKNSAACVVYEDMSHSRCNTLSSPNQYQ
notes: CD7, cell surface glycoprotein of the immunoglobulin superfamily, endogenous on the human T-ALL cell lines Jurkat and CEM; Also used as the target in the functional rows on patient-derived primary AML and T-ALL cells; source: endogenous, on Jurkat and CEM cells
B2: VHH6, CD7-specific nanobody (VHH)
VHH: DVQLQESGGGLVQAGGSLRLSCAVSGYPYSSYCMGWFRQAPGKEREGVAAIDSDGRTRYADSVKGRFTISQDNAKNTLYLQMNRMKPEDTAMYYCAARFGPMGCVDLSTLSFGHWGQGTQVTVSI
notes: Selected from a phage library of animals immunized with Jurkat cells (llama in the results, Camelus dromedarius in the methods); Monomer by SEC; also called parental nanobody; source: E. coli BL21 (DE3), pET28a, purified (Ni-NTA)
B3: VHH10, CD7-specific nanobody (VHH)
VHH: DVQLQESGGGSVQAGGSLRLSCAASGYTHSSYCMAWFRQAPGREREGVASIDSDGTTSYADSVKGRFTISQDNAKNTLYLQMNSLKPEDTAMYYCAARFGPMGCVDLSTLSFGHWGQGTQVTVSI
notes: source: E. coli BL21 (DE3), pET28a, purified (Ni-NTA)

Experiments:
Settings in all cases: one partner purified
[1] = target: T1, PG001, monovalent CD7 nanobody-based immunotoxin (VHH6-PE38-KDEL) (Pseudomonas (species )); experiment: flow cytometry on cells
T1 construct: also called pET28a-VHH6-PE38-KDEL; not shown: His6, N-terminal, kept

[2] = target: T2, PG002, bivalent CD7 nanobody-based immunotoxin (dVHH6-PE38-KDEL) (Pseudomonas (species )); experiment: flow cytometry on cells
T2 construct: also called pET28a-dVHH6-PE38-KDEL; not shown: His6, N-terminal, kept

[3] = target: B1; experiment: flow cytometry on cells; nanobody or immunotoxin at different concentrations incubated with Jurkat cells on ice; detected with APC anti-HA or Alexa Fluor 488 anti-His antibody; saturation curves, Scatchard plots, nonlinear regression (Prism)

Binder | Kd [1] [nM] | Kd [2] [nM] | Kd [3] [nM]
B1 | 16.7 | 3.61 | –
B2 | – | – | 15.4
B3 | – | – | 29.6
